Data as given in patent publication US8889620B2, “Pharmaceutical compositions comprising peptide antagonists of vascular endothelial growth factor” (Children's Medical Center Corporation, priority 1997, dated 2014).
Entries after “also recorded” stand apart in the source; their conditions may differ. Where no end group is shown, it is not given here.

Columns and labels:
[1] = biological target: T1, KDR/Flk-1 on PAE-KDR cells (Homo sapiens, UniProt P35968); test: Inhibition of 125I-VEGF165 binding to PAE-KDR cells; parameters: species or system porcine endothelial cells transfected to express KDR/Flk-1; settings: 125I-VEGF165 5 ng/ml, FIG. 3C
T1 construct: expressed in transfected cells; host or cells: porcine endothelial cells (PAE), gift of Dr. Claesson-Welsh
Procedure: (§1) FIGS. 3A-3C. Inhibition of ^125I-VEGF165 binding to HUVEC, MDA MB 231 cells, and PAE-KDR cells by GST-EX 7+8. ^125I-VEGF165 (5 ng,/ml) was bound to subconfluent cultures of HUVEC (3A), MDA MB 23 1 cells (3B), and PAE-KDR cells (3C) in 48-well dishes in the presence of increasing amounts of GST-Ex 7+8 (closed 20 square) or control GST protein (open squares). At the end of a 2-h incubation, the cells were washed and lysed, and the cell-associated radioactivity was determined with a γ-counter. The counts obtained are expressed as the percentage of the counts obtained in the presence of PBS without addition of GST or fusion protein.
Human umbilical vein endothelial cells (HUVEC) were obtained from the American Type Culture Collection (ATCC) (Rockville, Md.) and grown on gelatin-coated dishes in M-199 medium containing 20% fetal calf serum (FCS) and a mixture of glutamine, penicillin, and streptomycin (GPS). Basic FGF (1 nglml) was added to the culture medium every other day. Porcine endothelial cells (PAE), parental and transfected to express KDRElk-1 (PAE-KDR), were kindly provided by Dr. Lema Claesson-Welsh and grown in F12 medium containing 10% FCS and GPS as described (Waltenberger, et al., J. Biol. Chem., 269,26988-26995 (1994)). MDAMB-231 (231) cells were obtained from ATCC and grown in Bulbecoo's modified Eagle's medium containing 10% FCS and GPS.
(§2) Binding and cross-linking experiments using 125I-VEGF165 and 125I-VEGF121 were performed at described previously (Gitay-Goren, et al., J. Biol. Chem., 287, 6003-6096 (1992), Soker, et al., J: Biol. Chem., 271,5761-5767 (1996)). VEGF binding was quantified by measuring the cell-associated radioactivity in a y-counter (Beckman, Gamma 5500). The counts represent the average of three walls. All experiments were repeated at least three times, and similar results were obtained. 125I-VEGF cross-linked complexes were resolved by 6% SDS-PAGE, and the gels were exposed to a phosphor screen and scanned after 24 h by a PhosphorImager (Molecular Dynamics). Subsequently, the gels were exposed to x-ray film.

KDR/Flk-1 = test: Cross-linking of 125I-VEGF121 to KDR/Flk-1 of HUVEC; assay type: binding, human; settings: 15 ug/ml fusion protein, FIG. 8 lane 2
Procedure: FIG. 8. GST-Ex 7+8 fusion protein inhibits cross-linking of ^125I-VEGF121 to KDR/Flk-1 of HUVEC ^125I-VEGF121 (2˜0 ng/ml) was bound to subconfluent cultures of HUVEC in 6-cm dishes. The binding was carried out in the presence (lane 2) or the absence (lane 1) of 15 ug/ml GST-Ex 7+8. Heparin (1 ug/ml) was added to each dish. At the end of a 2-h incubation, ^125I-VEGF was chemically cross-linked to the cell surface. The cells were lysed, and proteins were resolved by 6% SDS-PAGE. The gel was dried and exposed to x-ray film.
as §2

[2] = biological target: T2, KDR/Flk-1 and VEGF165R on HUVEC (Homo sapiens, UniProt O14786); test: Inhibition of 125I-VEGF165 binding to HUVEC; settings: 125I-VEGF165 5 ng/ml, increasing concentrations of fusion protein, FIG. 3A
T2 construct: HUVEC, which express both KDR/Flk-1 and VEGF165R; endogenous in cells; host or cells: HUVEC (ATCC)
Procedure: as §1
FIGS. 5A and 5B. Localization of a core inhibitory region within exon 7. GST-Ex 7 fusion proteins containing full-length exon 7-encoded domain or truncations at the N-terminal and C-terminal ends were prepared as described in the Examples. ^125I-VEGF165 (5 ng/ml) was bound to subconfluent HUVEC cultures as described in FIG. 3, in the presence of increasing concentrations of the GST fusion proteins. At the end of a 2-h incubation, the cells were washed and lysed, and the cell-associated radioactivity was determined with a y counter. The counts obtained are expressed as percentage of the counts obtained in the presence of PBS without fusion protein B, the amino acid sequences of VEGF exon 7 derivatives. These derivatives were prepared to contain the first cysteine residue of exon 8 at their C termini to keep an even number of cysteine residue. FIG. 5B discloses SEQ ID NO: 19.
as §2

VEGF165R = VEGF165R (Homo sapiens, UniProt O14786); test: Direct binding/cross-linking of 125I-GST-Ex 7 to HUVEC: VEGF165R; parameters: HUVEC, which express both KDR/Flk-1 and VEGF165R; endogenous in cells; host or cells: HUVEC (ATCC); settings: cross-linking, 1 ug/ml heparin, FIG. 1 lane 3
Procedure: FIG. 1. Cross-linking of 1 ^125I-VEGF165, ^125I-VEGF121 and ^125I-GST-EX 7 to HUVEC. ^125I-VEGF165 (5 ng/ml) (lane 1) or ^125I-VEGF121 (10 ng/ml) (lane 2) or ^125I-GST-EX 7 (50 nglml) (lane 3) were bound to subconfluent cultures of HUVEC in 6-cm dishes. The binding was carried out in the presence of 1 ug/ml heparin. At the end of a 2-H incubation, each ^125I-VEGF isoform was chemically cross-linked to the cell surface. The cells were lysed and proteins were resolved by 6% SDS-PAGE. The polyacrylamide gel was dried and exposed to x-ray film.
as §2

T2 sequence (O14786 22-923): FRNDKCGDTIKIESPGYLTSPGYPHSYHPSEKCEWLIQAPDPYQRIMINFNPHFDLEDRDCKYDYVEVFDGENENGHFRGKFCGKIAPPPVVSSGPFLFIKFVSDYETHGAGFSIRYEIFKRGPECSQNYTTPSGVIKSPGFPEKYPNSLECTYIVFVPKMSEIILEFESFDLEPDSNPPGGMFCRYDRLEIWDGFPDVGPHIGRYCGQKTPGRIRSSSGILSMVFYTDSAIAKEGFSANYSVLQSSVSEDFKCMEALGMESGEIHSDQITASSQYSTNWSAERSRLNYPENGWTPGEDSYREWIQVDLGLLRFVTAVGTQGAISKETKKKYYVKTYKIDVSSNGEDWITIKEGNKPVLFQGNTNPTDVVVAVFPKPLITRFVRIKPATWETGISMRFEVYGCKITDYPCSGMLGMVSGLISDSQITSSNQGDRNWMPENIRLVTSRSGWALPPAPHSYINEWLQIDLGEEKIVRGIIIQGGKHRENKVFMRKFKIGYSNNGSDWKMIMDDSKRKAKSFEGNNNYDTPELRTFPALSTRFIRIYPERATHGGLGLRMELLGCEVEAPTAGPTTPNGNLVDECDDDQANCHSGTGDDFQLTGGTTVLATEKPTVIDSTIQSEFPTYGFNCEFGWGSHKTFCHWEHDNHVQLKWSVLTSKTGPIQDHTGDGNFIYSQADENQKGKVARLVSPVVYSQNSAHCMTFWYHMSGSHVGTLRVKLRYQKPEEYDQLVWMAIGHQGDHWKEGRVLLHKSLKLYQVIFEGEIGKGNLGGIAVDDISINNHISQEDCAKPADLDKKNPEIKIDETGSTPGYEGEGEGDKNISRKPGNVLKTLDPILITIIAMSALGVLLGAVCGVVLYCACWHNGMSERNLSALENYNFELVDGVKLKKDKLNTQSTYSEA
VEGF165R, sequence (O14786 22-923): as above
T1 sequence (P35968 20-1356): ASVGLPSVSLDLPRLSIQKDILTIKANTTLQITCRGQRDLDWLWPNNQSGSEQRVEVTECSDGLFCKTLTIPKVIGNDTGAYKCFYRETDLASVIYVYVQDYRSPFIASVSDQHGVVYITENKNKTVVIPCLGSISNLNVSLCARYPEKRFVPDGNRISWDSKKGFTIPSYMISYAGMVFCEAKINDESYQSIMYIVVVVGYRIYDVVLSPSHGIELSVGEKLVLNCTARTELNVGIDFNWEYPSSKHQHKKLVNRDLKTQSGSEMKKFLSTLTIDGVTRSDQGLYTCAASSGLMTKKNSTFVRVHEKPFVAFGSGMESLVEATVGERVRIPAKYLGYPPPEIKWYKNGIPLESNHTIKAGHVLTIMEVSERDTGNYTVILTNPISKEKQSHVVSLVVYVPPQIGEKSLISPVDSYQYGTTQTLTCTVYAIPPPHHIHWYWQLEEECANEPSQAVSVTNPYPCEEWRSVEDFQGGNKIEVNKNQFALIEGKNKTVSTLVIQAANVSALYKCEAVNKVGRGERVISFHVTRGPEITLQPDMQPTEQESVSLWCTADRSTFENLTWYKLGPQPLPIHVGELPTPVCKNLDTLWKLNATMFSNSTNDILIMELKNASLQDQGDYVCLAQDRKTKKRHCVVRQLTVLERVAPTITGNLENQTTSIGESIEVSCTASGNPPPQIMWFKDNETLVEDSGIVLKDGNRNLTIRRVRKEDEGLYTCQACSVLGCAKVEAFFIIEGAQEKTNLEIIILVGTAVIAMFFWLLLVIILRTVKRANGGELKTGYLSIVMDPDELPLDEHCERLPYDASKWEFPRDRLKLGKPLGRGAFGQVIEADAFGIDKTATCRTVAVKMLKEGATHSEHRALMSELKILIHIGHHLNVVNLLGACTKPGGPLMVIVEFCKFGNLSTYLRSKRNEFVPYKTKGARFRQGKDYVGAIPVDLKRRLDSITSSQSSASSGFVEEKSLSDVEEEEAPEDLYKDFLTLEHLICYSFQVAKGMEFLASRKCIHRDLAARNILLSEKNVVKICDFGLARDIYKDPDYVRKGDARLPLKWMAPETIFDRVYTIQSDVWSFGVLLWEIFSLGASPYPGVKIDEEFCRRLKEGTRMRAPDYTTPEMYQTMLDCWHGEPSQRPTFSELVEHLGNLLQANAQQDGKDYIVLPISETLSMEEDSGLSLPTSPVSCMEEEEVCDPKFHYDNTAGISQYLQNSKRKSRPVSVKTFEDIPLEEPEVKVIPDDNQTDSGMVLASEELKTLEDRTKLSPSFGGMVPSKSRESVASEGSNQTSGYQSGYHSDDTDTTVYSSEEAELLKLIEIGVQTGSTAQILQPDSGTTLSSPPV

inhibition of 125I-VEGF165 binding to PAE-KDR cells (in words) [1]: did not inhibit | inhibition of 125I-VEGF165 binding to HUVEC [2]: 85-95% | direct binding to VEGF165R on HUVEC (in words) (VEGF165R): binds
Substance: GST-Ex 7+8: GST fusion protein containing the peptide encoded by VEGF165 exons 7 and 8 (PCGPCSERRKHLFVQDPQTCKCSCKNTDSRCKARQLELNERTCRCDKPRR; cysteine pairing not given here; also: GST fusion protein, side of fusion not given here)
formation of 240-kDa 125I-VEGF121/KDR/Flk-1 cross-linked complexes on HUVEC (in words) (KDR/Flk-1): significantly inhibited; also recorded: diminished binding
